According to patent publication KR20130126543A (dated 2013):

B1: 항 IL-6R 단클론 항체 A7 (antibody, V domains shown)
VH: QMQLVESGGGLVQPGTSLRLSCAASGFKFEDYAMHWVRQAPGKGLEWVSGVSWNSGTIAYVDSVKGRFTISRDNAKNSLYLQMNSLRAEDTAVYYCARDFTYFYESSGYYAFDLWGQGTMVTVSS
VL: SQLVLTQPPSVSGAPGQRVTISCTGTNSNIGAGYDVHWYQQVPGTTPKLLIYGNTNRPSGVPDRFSGSKSGTSASLAITGLQAEDGGDYYCQSFDSSLTGSVFGTGTKVTVL
B2: 모노 파아지 클론 A7 (scFv, V domains shown)
VH: QMQLVESGGGLVQPGTSLRLSCAASGFKFEDYAMHWVRQAPGKGLEWVSGVSWNSGTIAYVDSVKGRFTISRDNAKNSLYLQMNSLRAEDTAVYYCARDFTYFYESSGYYAFDLWGQGTMVTVSS
VL: SQLVLTQPPSVSGAPGQRVTISCTGTNSNIGAGYDVHWYQQVPGTTPKLLIYGNTNRPSGVPDRFSGSKSGTSASLAITGLQAEDGGDYYCQSFDSSLTGSVFGTGTKVTVL
notes: also called A07
B3: A7/TNFR2 (bispecific antibody)
heavy: not shown
light: DVHSQLVLTQPPSVSGAPGQRVTISCTGTNSNIGAGYDVHWYQQVPGTTPKLLIYGNTNRPSGVPDRFSGSKSGTSASLAITGLQAEDGGDYYCQSFDSSLTGSVFGTGTKVTVL
notes: also called Anti-IL-6R/TNFR2; Dual
B4: 항 IL-6R 단클론 항체 F2 (antibody, V domains shown)
VH: QVQLVESGAEVKKPGASVKVSCKASGYTFTNYYMHWVRQAPGQGLEWMGIINPSGGNTGYAQKFQGRVTMTRDMSTSTAYMELSSLRSEDTAVYYCARGLPWGENGLDVWGQGTTVTVSS
VL: SQLVLTQPSSVSGAPGQTVTISCTGSSSNIGAGYDVHWYQQLPGTAPKVLIYGDSDRPSGVPDRFSGSKSATSASLAITGLQAEDEADYYCQSYDSSLSAYVFGTGTKVTVL
B5: 모노 파아지 클론 F2 (scFv, V domains shown)
VH: QVQLVESGAEVKKPGASVKVSCKASGYTFTNYYMHWVRQAPGQGLEWMGIINPSGGNTGYAQKFQGRVTMTRDMSTSTAYMELSSLRSEDTAVYYCARGLPWGENGLDVWGQGTTVTVSS
VL: SQLVLTQPSSVSGAPGQTVTISCTGSSSNIGAGYDVHWYQQLPGTAPKVLIYGDSDRPSGVPDRFSGSKSATSASLAITGLQAEDEADYYCQSYDSSLSAYVFGTGTKVTVL
notes: also called F02
B6: 항 IL-6R 단클론 항체 D2 (antibody, V domains shown)
VH: QVQLVESGAEVKKPGSSVKVSCKGSGDTFPNYAINWVRQAPGQGPEWMGRIIPMLGTSDYAEKFQGRVTITADKSTNTAYMGLNSLRSEDTAVYYCVKGPRYYGTDSYYLEKWGQGTMVTVSS
VL: SQLVLTQPPSVSGAPGQTVTISCTGPTIGAGYDVHWYQQLPGAAPKLLIYGNLNRPSGVPDRFSGSKSGTSASLAITDLQAEDEADYYCHTYDSSLSGSWVFGGGTKLTVL
B7: 모노 파아지 클론 B10 (scFv, V domains shown)
VH: QVQLVESGGGLVQPGGSLRLSCAASGFIFDDYAMFWVRQVPGKGLEWVAGINWNGNGIGYGDSVRGRFIISRDNARNSLDLQMNSLRAEDTAVYYCARPSLYGGNSEFDLWGQGTLVTVSS
VL: SQLVLTQPPSVSGAPGQTVTISCTGPTIGAGYDVHWYQQLPGAAPKLLIYGNLNRPSGVPDRFSGSKSGTSASLAITDLQAEDEADYYCHTYDSSLSGSWVFGGGTKLTVL
notes: also called 6B10
B8: 항 IL-6R 단클론 항체 B10 (antibody, V domains shown)
VH: QVQLVESGGGLVQPGGSLRLSCAASGFIFDDYAMFWVRQVPGKGLEWVAGINWNGNGIGYGDSVRGRFIISRDNARNSLDLQMNSLRAEDTAVYYCARPSLYGGNSEFDLWGQGTLVTVSS
VL: SQLVLTQPPSVSGAPGQTVTISCTGPTIGAGYDVHWYQQLPGAAPKLLIYGNLNRPSGVPDRFSGSKSGTSASLAITDLQAEDEADYYCHTYDSSLSGSWVFGGGTKLTVL
B9: 모노 파아지 클론 D2 (scFv, V domains shown)
VH: QVQLVESGAEVKKPGSSVKVSCKGSGDTFPNYAINWVRQAPGQGPEWMGRIIPMLGTSDYAEKFQGRVTITADKSTNTAYMGLNSLRSEDTAVYYCVKGPRYYGTDSYYLEKWGQGTMVTVSS
VL: SQLVLTQPPSVSGAPGQTVTISCTGPTIGAGYDVHWYQQLPGAAPKLLIYGNLNRPSGVPDRFSGSKSGTSASLAITDLQAEDEADYYCHTYDSSLSGSWVFGGGTKLTVL
notes: also called D02
B10: B10/TNFR2 (bispecific antibody)
heavy: not shown
light: DVHSQLVLTQPPSVSGAPGQTVTISCTGPTIGAGYDVHWYQQLPGAAPKLLIYGNLNRPSGVPDRFSGSKSGTSASLAITDLQAEDEADYYCHTYDSSLSGSWVFGGGTKLTVL
notes: also called Anti-IL-6R/TNFR2

Legend:
IL-6R-Fc 항원 [1] = target: T1, IL-6R-Fc 항원 (human, UniProt P08887 20-365, limits assumed); assay: ELISA; IL-6R coated 100 ng/well; IgG at 0.04883 nM; anti-Fab-HRP
T1 construct: domain: IL-6R full domain; Made in-house as IL-6R-Fc; also called IL-6R full; IL-6R full domain인 단백질; not shown: Fc part (vector pYK 604)
T1 sequence (looked up): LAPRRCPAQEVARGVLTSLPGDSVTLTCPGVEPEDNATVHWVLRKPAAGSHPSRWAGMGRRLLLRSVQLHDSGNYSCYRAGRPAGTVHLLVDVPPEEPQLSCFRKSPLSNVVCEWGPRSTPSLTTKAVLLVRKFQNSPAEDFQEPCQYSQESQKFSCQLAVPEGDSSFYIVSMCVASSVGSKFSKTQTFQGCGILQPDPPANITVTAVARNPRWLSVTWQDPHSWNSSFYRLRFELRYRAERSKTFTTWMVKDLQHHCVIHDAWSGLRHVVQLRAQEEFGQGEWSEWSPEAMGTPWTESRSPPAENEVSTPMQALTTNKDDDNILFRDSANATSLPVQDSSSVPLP

IL-6R-Fc 항원 [2] = target: T1, IL-6R-Fc 항원; assay: ELISA; IL-6R coated 100 ng/well; IgG at 0.78125 nM; anti-Fab-HRP
IL-6R-Fc 항원 [3] = target: T1, IL-6R-Fc 항원; assay: ELISA; IL-6R coated 100 ng/well; IgG at 0.09766 nM; anti-Fab-HRP
IL-6R-Fc 항원 [4] = target: T1, IL-6R-Fc 항원; assay: ELISA; IL-6R coated 100 ng/well; IgG at 0.02441 nM; anti-Fab-HRP
IL-6R-Fc 항원 [5] = target: T1, IL-6R-Fc 항원; assay: ELISA; IL-6R coated 100 ng/well; IgG at 50 nM; anti-Fab-HRP
IL-6R-Fc 항원 [6] = target: T1, IL-6R-Fc 항원; assay: ELISA; IL-6R coated 100 ng/well; IgG at 25 nM; anti-Fab-HRP
IL-6R-Fc 항원 [7] = target: T1, IL-6R-Fc 항원; assay: ELISA; IL-6R coated 100 ng/well; IgG at 12.5 nM; anti-Fab-HRP
IL-6R-Fc 항원 [8] = target: T1, IL-6R-Fc 항원; assay: ELISA; IL-6R coated 100 ng/well; IgG at 0.39063 nM; anti-Fab-HRP
IL-6R-Fc 항원 [9] = target: T1, IL-6R-Fc 항원; assay: ELISA; IL-6R coated 100 ng/well; IgG at 1.5625 nM; anti-Fab-HRP
IL-6R-Fc 항원 [10] = target: T1, IL-6R-Fc 항원; assay: ELISA titration on coated IL-6R (repeats the 3rd table)
IL-6R-Fc 항원 [11] = target: T1, IL-6R-Fc 항원; assay: ELISA titration on coated IL-6R; fit R2 0.93
IL-6R-Fc 항원 [12] = target: T1, IL-6R-Fc 항원; assay: ELISA; IL-6R coated 100 ng/well; IgG at 3.125 nM; anti-Fab-HRP
IL-6R-Fc 항원 [13] = target: T1, IL-6R-Fc 항원; assay: ELISA; IL-6R coated 100 ng/well; IgG at 0.19531 nM; anti-Fab-HRP
IL-6R-Fc 항원 [14] = target: T1, IL-6R-Fc 항원; assay: ELISA; IL-6R coated 100 ng/well; IgG at 6.25 nM; anti-Fab-HRP
a-Myc = target: T2, a-Myc; assay: mono phage ELISA; a-Myc coated 100 ng/well; anti-M13-HRP
T2 construct: Coated at 100 ng/well in the phage ELISAs

IL-6R-Fc 항원 [15] = target: T1, IL-6R-Fc 항원; assay: assay on IL-6R not described for the bispecific protein
IL-6R-Fc 항원 [16] = target: T1, IL-6R-Fc 항원; assay: ELISA titration on coated IL-6R; fit R2 0.98
IL-6R-Fc 항원 [17] = target: T1, IL-6R-Fc 항원; assay: ELISA titration on coated IL-6R; fit R2 0.8
IL-6R-Fc 항원 [18] = target: T1, IL-6R-Fc 항원; assay: ELISA titration on coated IL-6R; fit R2 0.75
TNF-α = target: T3, TNF-α (UniProt P01375 77-233); assay: ELISA; TNF-α coated 100 ng/well; protein from 100 nM in 1/4 steps; anti-Human Fc-HRP
T3 construct: Coated at 100 ng/well; also called TNF-a; TNF-α 리간드
T3 sequence (P01375 77-233 limits assumed): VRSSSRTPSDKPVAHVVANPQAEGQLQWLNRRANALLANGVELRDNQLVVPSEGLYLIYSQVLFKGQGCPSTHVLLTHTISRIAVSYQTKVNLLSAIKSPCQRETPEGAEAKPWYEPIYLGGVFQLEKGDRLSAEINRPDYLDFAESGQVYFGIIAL

Row | Binder | OD 490 nm (IL-6R-Fc 항원 [1]) [OD490] | OD 490 nm (IL-6R-Fc 항원 [2]) [OD490] | OD 490 nm (IL-6R-Fc 항원 [3]) [OD490] | OD 490 nm (IL-6R-Fc 항원 [4]) [OD490] | OD 490 nm (IL-6R-Fc 항원 [5]) [OD490] | OD 490 nm (IL-6R-Fc 항원 [6]) [OD490] | OD 490 nm (IL-6R-Fc 항원 [7]) [OD490] | OD 490 nm (IL-6R-Fc 항원 [8]) [OD490] | OD 490 nm (IL-6R-Fc 항원 [9]) [OD490] | Kd (IL-6R-Fc 항원 [10]) [nM] | OD 490 nm (IL-6R-Fc 항원 [12]) [OD490] | OD 490 nm (IL-6R-Fc 항원 [13]) [OD490] | OD 490 nm (IL-6R-Fc 항원 [14]) [OD490] | OD 490 nm (a-myc) (a-Myc) [OD490] | also measured
1 | B1 | 0.498 | 0.782 | 0.497 | 0.514 | 3.1 | 2.84 | 2.58 | 0.618 | 1.17 | 2.3 | 1.64 | 0.546 | 2.13 |  | Kd (IL-6R-Fc 항원 [11]): 2.3 nM
2 | B2 |  |  |  |  |  |  |  |  |  |  |  |  |  | 0.0797 | 
3 | B3 |  |  |  |  |  |  |  |  |  |  |  |  |  |  | Kd (IL-6R-Fc 항원 [15]): 2.3 nM
4 | B4 | 0.584 | 1.9 | 0.743 | 0.535 | 2.99 | 2.89 | 2.92 | 1.41 | 2.43 | 0.35 | 2.72 | 1.01 | 2.71 |  | Kd (IL-6R-Fc 항원 [16]): 0.35 nM
5 | B5 |  |  |  |  |  |  |  |  |  |  |  |  |  | 0.287 | 
6 | B6 | 0.451 | 0.479 | 0.45 | 0.449 | 2.38 | 1.94 | 1.47 | 0.473 | 0.584 | 7.5 | 0.719 | 0.469 | 0.981 |  | Kd (IL-6R-Fc 항원 [17]): 7.5 nM
7 | B7 |  |  |  |  |  |  |  |  |  |  |  |  |  | 0.113 | 
8 | B8 | 0.451 | 0.5 | 0.462 | 0.468 | 2.09 | 1.78 | 1.39 | 0.476 | 0.607 | 4.3 | 0.761 | 0.429 | 1.04 |  | Kd (IL-6R-Fc 항원 [18]): 4.3 nM
9 | B9 |  |  |  |  |  |  |  |  |  |  |  |  |  | 0.303 | 
10 | B10 |  |  |  |  |  |  |  |  |  |  |  |  |  |  | Kd (TNF-α): 0.72 nM; Kd (IL-6R-Fc 항원 [15]): 4.3 nM
